Experimental data from paper PMC7954794, “Protein context shapes the specificity of SH3 domain-mediated interactions in vivo” (Nature Communications, 2021).

Tested on: 575 putative partners (preys) of 22 WT SH3-containing proteins
Assay: DHFR-PCA on solid medium, WT and SH3-deleted baits (Fig. 1B)
Format: cell-based, Saccharomyces cerevisiae
Conditions: number of PPIs; SH3 domain in its own protein; DHFR-PCA; Fig2D,S2F
Method in brief: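 Interactions scored by DHFR protein-fragment complementation on solid medium using robotic pinning; preys (DHFR F[3] fusions) arrayed in duplicate with control borders. Baits carried C-terminal DHFR F[1,2]-FLAG tags, tested as wild type and as SH3-deleted versions carrying a flexible Gly/Ser stuffer.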

Molecule | SH3-dependent PPIs
MYO5 (protein, UniProt Q04439 1-1219, looked up) Myosin-5: MAILKRGARKKVHQEPAKRSANIKKATFDSSKKKEVGVSDLTLLSKISDEAINENLKKRFLNATIYTYIGHVLISVNPFRDLGIYTDAVMNEYKGKNRLEVPPHVFAIAESMYYNMKSYNENQCVIISGESGAGKTEAAKRIMQYIAAASSTHTESIGKIKDMVLATNPLLESFGCAKTLRNNNSSRHGKYLEIKFNNQFEPCAGNITNYLLEKQRVVSQIKNERNFHIFYQFTKGASDAYRQTFGVQKPEQYVYTAAAGCISAETIDDLQDYQETLKAMRVIGLGQEEQDQIFRMLAAILWIGNVSFIENEEGNAQVRDTSVTDFVAYLLQIDSQLLIKSLVERIMETNHGMKRGSVYHVPLNIVQADAVRDALAKAIYNNLFDWIVSRVNKSLQAFPGAEKSIGILDIYGFEIFEHNSFEQICINYVNEKLQQIFIQLTLKSEQETYEREKIQWTPIKYFDNKVVCDLIEARRPPGIFAAMNDSVATAHADSNAADQAFAQRLNLFTTNPHFDLRSNKFVIKHYAGDVTYDIDGITDKNKDQLQKDLVELIGTTTNTFLATIFPDTVDRESKRRPPTAGDKIIKSANDLVETLSKAQPSYIRTIKPNETKSPNDYDDRQVLHQIKYLGLQENVRIRRAGFAYRQVFEKFVERFYLLSPHCSYAGDYTWQGDTLDAVKYILQDSSIPQQEYQLGVTSVFIKTPETLFALEHMRDRYWHNMAARIQRAWRRFLQRRIDAATKIQRTIRERKEGNKYEKLRDYGTKVLGGRKERRSMSLLGYRAFMGDYLSCNESKSKGAYIKRQVSIKEKVIFSIHGEALHTKFGRSAQRLKKTFLLTPTTLYIVGQTLVQNAMTYTQDYKIDVRNIQAVSLTNLQDDWVAIKLASSGQPDPLINTYFKTELITHLKRLNDKIQIKIGSAIEYQKKPGKLHSVKCQINESAPKYGDIYKSSTISVRRGNPPNSQVHKKPRKKSSISSGYHASSSQATRRPVSIAAAQHVPTAPASRHSKKPAPPPPGMQNKAATRRSVPNPASTLTASQSNARPSPPTAATRATPAATPAAAAMGSGRQANIPPPPPPPPPSSKPKEPMFEAAYDFPGSGSPSELPLKKGDVIYITREEPSGWSLGKLLDGSKEGWVPTAYMKPHSGNNNIPTPPQNRDVPKPVLNSVQHDNTSANVIPAAAQASLGDGLANALAARANKMRLESDDEEANEDEEEDDW | 19
MYO3 (protein, UniProt P36006 1-1272, looked up) Myosin-3: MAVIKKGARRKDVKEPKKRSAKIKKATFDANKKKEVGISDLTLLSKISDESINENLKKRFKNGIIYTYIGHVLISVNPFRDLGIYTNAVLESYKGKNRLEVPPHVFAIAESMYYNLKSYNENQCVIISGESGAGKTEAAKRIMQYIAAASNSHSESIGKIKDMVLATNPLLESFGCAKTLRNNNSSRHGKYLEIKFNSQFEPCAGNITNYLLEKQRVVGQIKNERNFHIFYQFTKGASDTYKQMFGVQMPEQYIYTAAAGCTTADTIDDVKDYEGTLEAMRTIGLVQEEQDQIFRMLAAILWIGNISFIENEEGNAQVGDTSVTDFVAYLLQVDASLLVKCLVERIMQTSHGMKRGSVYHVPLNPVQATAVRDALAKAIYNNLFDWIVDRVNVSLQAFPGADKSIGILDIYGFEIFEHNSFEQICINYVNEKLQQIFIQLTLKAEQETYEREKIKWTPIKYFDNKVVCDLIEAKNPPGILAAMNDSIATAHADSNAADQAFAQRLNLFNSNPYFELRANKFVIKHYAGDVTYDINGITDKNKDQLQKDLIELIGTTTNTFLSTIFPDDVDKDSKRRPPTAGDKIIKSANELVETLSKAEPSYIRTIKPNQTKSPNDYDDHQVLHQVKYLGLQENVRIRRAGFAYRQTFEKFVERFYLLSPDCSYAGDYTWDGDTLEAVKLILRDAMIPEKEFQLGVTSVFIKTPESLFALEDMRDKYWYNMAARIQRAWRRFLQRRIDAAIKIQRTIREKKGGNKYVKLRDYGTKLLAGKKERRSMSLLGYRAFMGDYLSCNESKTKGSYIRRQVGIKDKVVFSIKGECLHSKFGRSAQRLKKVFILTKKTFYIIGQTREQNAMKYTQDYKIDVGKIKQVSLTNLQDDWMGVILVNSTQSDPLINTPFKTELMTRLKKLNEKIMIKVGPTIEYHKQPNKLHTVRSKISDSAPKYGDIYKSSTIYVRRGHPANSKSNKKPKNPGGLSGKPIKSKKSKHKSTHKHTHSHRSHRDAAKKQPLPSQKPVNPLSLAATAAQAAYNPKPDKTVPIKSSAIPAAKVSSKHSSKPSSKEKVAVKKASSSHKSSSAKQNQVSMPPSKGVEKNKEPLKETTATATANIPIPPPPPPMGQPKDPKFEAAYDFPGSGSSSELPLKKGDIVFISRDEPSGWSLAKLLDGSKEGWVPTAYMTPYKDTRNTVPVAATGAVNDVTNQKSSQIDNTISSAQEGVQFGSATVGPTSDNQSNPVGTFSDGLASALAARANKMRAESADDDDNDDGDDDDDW | 17
